The source of these data is article PMC12276362 (Nature Communications, 2025).

By Kd is commonly meant a measure of binding affinity in units of concentration. Low values mean a tighter complex, high ones a looser complex.

The experiment deals with rhAMPK protein (AMPKα2, Abiocenter Biotechnology) (human (printed only as the prefix rh), UniProt P54646 1-552). As to the kind of experiment: BLI. (In general: In BLI a coated tip is dipped into the sample, and binding shifts an interference pattern.)
Chain of rhAMPK protein (AMPKα2, Abiocenter Biotechnology) (P54646 whole entry): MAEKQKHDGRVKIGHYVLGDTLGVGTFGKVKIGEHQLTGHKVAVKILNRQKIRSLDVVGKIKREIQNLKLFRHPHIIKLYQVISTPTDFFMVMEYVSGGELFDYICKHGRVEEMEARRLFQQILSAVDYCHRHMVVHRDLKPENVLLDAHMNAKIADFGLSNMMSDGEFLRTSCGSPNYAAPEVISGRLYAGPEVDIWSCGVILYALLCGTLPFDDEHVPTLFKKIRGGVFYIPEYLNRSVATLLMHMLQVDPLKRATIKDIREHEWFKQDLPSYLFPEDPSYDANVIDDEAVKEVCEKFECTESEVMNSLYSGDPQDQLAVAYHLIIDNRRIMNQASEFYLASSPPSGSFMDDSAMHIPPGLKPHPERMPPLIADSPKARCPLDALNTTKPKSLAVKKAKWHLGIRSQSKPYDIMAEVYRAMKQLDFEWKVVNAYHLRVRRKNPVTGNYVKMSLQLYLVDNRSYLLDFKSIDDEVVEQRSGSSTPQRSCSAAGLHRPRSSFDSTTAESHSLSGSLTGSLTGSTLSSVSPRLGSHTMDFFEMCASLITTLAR

B1: rhOTUD1 protein (enzyme, human (printed only as the prefix rh), UniProt Q5VV17 1-481, looked up)
chain: MQLYSSVCTHYPAGAPGPTAAAPAPPAAATPFKVSLQPPGAAGAAPEPETGECQPAAAAEHREAAAVPAAKMPAFSSCFEVVSGAAAPASAAAGPPGASCKPPLPPHYTSTAQITVRALGADRLLLHGPDPVPGAAGSAAAPRGRCLLLAPAPAAPVPPRRGSSAWLLEELLRPDCPEPAGLDATREGPDRNFRLSEHRQALAAAKHRGPAATPGSPDPGPGPWGEEHLAERGPRGWERGGDRCDAPGGDAARRPDPEAEAPPAGSIEAAPSSAAEPVIVSRSDPRDEKLALYLAEVEKQDKYLRQRNKYRFHIIPDGNCLYRAVSKTVYGDQSLHRELREQTVHYIADHLDHFSPLIEGDVGEFIIAAAQDGAWAGYPELLAMGQMLNVNIHLTTGGRLESPTVSTMIHYLGPEDSLRPSIWLSWLSNGHYDAVFDHSYPNPEYDNWCKQTQVQRKRDEELAKSMAISLSKMYIEQNACS
modifications: biotin (EZ-Link Sulfo-NHS-LC-Biotinylation Kit)
B1 registered a Kd of 55.6 nM.
